Experimental findings from US20100183544A1 (CSL, published 2010) are described below.

The target in assay [1] is T1, IL-11R-Fc.
T1 sequence (Q64385 whole entry, species assumed, looked up): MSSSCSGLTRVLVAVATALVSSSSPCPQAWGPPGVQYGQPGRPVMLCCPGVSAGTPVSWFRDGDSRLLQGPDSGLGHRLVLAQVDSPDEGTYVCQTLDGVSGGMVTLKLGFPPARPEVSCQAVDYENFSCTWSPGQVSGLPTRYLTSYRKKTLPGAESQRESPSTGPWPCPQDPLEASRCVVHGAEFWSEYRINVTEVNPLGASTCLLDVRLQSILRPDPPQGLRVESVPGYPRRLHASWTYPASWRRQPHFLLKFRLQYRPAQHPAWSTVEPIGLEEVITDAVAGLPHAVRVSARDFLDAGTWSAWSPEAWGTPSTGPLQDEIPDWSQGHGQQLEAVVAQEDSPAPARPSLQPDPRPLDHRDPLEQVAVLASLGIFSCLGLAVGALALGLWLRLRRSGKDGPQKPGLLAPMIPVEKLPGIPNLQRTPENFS
Description: competition ELISA on IL-11R-Fc; reference murine W147A IL-11.

Assay [2] addresses T1, IL-11R-Fc. The assay is described as follows: IL-11R binding ELISA; reference non-PEGylated mutein.
In assay [3] the target is T2, murine IL-11R on Ba/F3 cells stably transfected with murine IL-11R/gp130 (murine, UniProt Q64385 24-432).
T2 sequence (looked up): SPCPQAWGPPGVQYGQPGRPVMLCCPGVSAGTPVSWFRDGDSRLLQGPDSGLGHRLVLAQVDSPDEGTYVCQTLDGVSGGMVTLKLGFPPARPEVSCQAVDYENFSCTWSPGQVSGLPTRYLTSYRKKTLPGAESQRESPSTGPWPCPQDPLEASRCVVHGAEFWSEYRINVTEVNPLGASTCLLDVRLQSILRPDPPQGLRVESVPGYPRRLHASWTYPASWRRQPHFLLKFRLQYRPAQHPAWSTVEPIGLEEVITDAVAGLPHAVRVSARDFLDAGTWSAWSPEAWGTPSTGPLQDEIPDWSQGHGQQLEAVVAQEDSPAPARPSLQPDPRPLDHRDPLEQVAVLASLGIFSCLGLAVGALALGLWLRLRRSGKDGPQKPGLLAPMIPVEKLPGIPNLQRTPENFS
The assay is described as follows: cell-based or functional assay.

“IL-11 mutein of SEQ ID NO: 1 (murine IL-11 with AMSAG at positions 58-62 replaced by PAIDY and W147A), N-terminal His-tagged (from UniProt P47873 22-199) (ligand)” gave a fold higher binding affinity than murine W147A IL-11 with IL-11R-Fc [1] of 20 fold.

B1: PEGylated IL-11 mutein (SEQ ID NO: 3 with a single 40 kDa PEG on the Cys at position 147) (ligand)
chain: VSSDPRADLDSAVLLTRSLLADTRQLAAQMRDKFPADGDHSLDSLPTLPAIDYTLGSLQLPGVLTRLRVDLMSYLRHVQWLRRAGGPSLKTLEPELGALQARLERLLRRLQLLMSRLALPQAAPDQPVIPLGPPASACGSIRAAHAILGGLHLTLDWAVRGLLLLKTRL
modifications: mPEG2-maleimide (single 40 kDa PEG moiety) on the Cys residue introduced at position 147 (mature murine IL-11 numbering)
Molecule B1 showed a fold reduction of IL-11R binding affinity relative to non-PEGylated mutein with IL-11R-Fc [2] of 5 fold. Also, the “fold reduction against non-PEGylated mutein in antagonism of IL-11-induced Ba/F3 cell proliferation” value in assay [3] is ~10 fold.
